These results are taken from patent US20220195043A1 (BEIJING MABWORKS BIOTECH, published 2022).

In assay [1] the target is T1, human TCR/CD3 complex on cell surfaces (primary human CD4+ T cells; Jurkat cells; human PBMCs) (human, UniProt P07766 23-207).
T1 construct: whole, on cells; Native complex on cells; the γ, δ, ζ and TCR chains of the complex are present on the cells too; also called human CD3 complexes on cell surfaces; human CD3+ T cells
Description: FACS on primary human T cells, PE goat anti-human IgG, MFI.

For assay [2], the target named is T2, human CD64 (HEK293A/human CD64 cells) (human, UniProt P12314 16-374).
T2 construct: Stably expressed on HEK293A cells; also called FcγRI
The experiment in a line: FACS on HEK293A/human CD64 cells, PE F(ab')2 goat anti-human IgG Fc, MFI; bars at 40, 8, 1.6, 0.32 and 0.064 µg/mL.

The target of assay [3] is T1, human TCR/CD3 complex on cell surfaces …. Description: FACS on Jurkat cells, PE goat anti-human IgG, MFI.
The target in assay [4] is T3, human CD16A (HEK293A/human CD16A cells) (human, UniProt P08637 17-254).
T3 construct: Stably expressed on HEK293A cells; also called FcγRIIIA
Description: FACS on HEK293A/human CD16A cells, PE F(ab')2 goat anti-human IgG Fc, MFI; bars at 40, 8, 1.6, 0.32 and 0.064 µg/mL.

The target in assay [5] is T4, human CD32A (HEK293A/human CD32A cells) (human, UniProt P12318 34-317).
T4 construct: Stably expressed on HEK293A cells; also called FcγRIIA
T4 sequence: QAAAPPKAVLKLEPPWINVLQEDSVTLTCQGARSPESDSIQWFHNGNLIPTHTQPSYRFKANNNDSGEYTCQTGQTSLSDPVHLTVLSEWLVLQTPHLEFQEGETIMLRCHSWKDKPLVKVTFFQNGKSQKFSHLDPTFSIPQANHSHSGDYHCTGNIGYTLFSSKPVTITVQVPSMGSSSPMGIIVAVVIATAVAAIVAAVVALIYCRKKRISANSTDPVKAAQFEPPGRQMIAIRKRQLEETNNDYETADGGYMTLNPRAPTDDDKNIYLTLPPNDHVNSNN
The experiment in a line: FACS on HEK293A/human CD32A cells, PE F(ab')2 goat anti-human IgG Fc, MFI; bars at 40, 8, 1.6, 0.32 and 0.064 µg/mL.

For assay [6], the target named is T5, human CD32B (HEK293A/human CD32B cells) (human, UniProt P31994 43-310).
T5 construct: Stably expressed on HEK293A cells; also called FcγRIIB
T5 sequence: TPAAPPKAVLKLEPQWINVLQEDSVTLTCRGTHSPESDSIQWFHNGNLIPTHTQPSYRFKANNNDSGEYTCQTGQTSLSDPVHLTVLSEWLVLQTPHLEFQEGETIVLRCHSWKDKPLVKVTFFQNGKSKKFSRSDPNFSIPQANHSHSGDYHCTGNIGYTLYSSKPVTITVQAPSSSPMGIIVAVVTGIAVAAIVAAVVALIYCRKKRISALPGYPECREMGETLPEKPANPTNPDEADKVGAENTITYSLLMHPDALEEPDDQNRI
The experiment in a line: FACS on HEK293A/human CD32B cells, PE F(ab')2 goat anti-human IgG Fc, MFI; bars at 40, 8, 1.6, 0.32 and 0.064 µg/mL.

The target in assay [7] is T6, monkey CD3ε-his (Cat #: 90047-C08H, SinoBiological, China) (monkey, UniProt Q95LI5 22-117).
T6 construct: Bought protein; also called monkey CD3ε protein; recombinant monkey CD3ε
T6 sequence: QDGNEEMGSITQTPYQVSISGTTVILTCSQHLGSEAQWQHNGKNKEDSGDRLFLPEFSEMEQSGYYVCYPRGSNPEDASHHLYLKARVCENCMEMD
The experiment in a line: ELISA: plate coated with monkey CD3ε-his, antibody titrated, HRP goat anti-human IgG, OD450.

The target of assay [8] is T7, human CD3ε-his (Cat #:10977-H08s, SinoBiological, China) (human, UniProt P07766 23-126).
T7 construct: Bought protein; also called human CD3ε protein; recombinant human CD3ε; not shown: his tag
The experiment in a line: ELISA: plate coated with human CD3ε-his, antibody titrated, HRP goat anti-human IgG, OD450.

Assay [9] addresses T6, monkey CD3ε-his (Cat #: 90047-C08H, …). Description: ELISA: plate coated with monkey CD3ε-his, antibody titrated, HRP goat anti-human IgG, OD 450.
For assay [10], the target named is T7, human CD3ε-his (Cat #:10977-H08s, …). Description: ELISA: plate coated with human CD3ε-his, antibody titrated, HRP goat anti-human IgG, OD 450.

Positions count from the first letter of the chain named. Names and notes keep the numbering of the source.

T1 sequence (P07766 23-207, one chain of several): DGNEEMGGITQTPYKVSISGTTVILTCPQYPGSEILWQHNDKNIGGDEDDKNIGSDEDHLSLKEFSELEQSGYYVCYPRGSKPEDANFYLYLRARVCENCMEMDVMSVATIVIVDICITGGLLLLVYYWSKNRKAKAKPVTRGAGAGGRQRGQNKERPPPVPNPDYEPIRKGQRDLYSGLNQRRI
T2 sequence (P12314 16-374 limits assumed): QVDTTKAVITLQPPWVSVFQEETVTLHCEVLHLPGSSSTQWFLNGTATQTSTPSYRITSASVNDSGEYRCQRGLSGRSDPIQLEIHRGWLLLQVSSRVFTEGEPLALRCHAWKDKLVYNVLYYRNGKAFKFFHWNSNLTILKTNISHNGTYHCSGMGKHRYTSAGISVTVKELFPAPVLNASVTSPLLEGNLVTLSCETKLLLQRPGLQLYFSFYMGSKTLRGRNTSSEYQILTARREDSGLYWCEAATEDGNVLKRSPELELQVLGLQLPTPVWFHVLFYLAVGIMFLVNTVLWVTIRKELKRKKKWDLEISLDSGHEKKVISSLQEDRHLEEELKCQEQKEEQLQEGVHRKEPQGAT
T3 sequence (P08637 17-254 F176V limits assumed): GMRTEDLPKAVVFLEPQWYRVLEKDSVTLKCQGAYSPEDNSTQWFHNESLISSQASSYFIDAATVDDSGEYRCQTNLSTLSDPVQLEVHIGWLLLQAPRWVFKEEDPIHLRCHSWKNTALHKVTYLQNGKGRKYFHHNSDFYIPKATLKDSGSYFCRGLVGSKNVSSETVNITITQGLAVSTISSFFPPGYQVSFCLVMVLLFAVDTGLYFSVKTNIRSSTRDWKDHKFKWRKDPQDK
T7 sequence (P07766 23-126 limits assumed): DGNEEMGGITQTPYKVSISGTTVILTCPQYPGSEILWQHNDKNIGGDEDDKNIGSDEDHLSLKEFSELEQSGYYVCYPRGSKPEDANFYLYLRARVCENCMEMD

B1: chimeric antibody 19-37 (full length, human IgG1) (antibody, V domains shown)
VH: EVKLLESGGGLVQPKGSLKLSCAASGFTFNTYAMNWVRQAPGKGLEWVARIRSKYNNYATYYAISVKDRFTISRDDSQSILYLQMNNLKTEDTAMYYCVRHGNFGNSYISYWAYWGQGTLVTVSA
VL: QAVVTQESALTTSPGETVTLTCRSSTGAVTTNNYANWVQEKPDHLFTGLIGGTRLSAPGVPARFSGSLIGDKAALTITGAQTEDEAIYFCVLWYSNLWVFGGGTKLTVLG
Consider B1, for which the “EC50 (read off the curve)” value in assay [1] is around 100 µg/mL.

B2: 15H3L3-WT (15H3L3 with wild-typed IgG1 constant region and λ constant region SEQ ID NO: 32) (antibody)
heavy: not shown
light: QAVVTQEPSLTVSPGGTVTLTCQSSTGAVTTNNYANWVQQKPGHAFRGLIGGTKQRAPGVPARFSGSLLGGKAALTLSGVQPEDEAEYYCVLWYSNLWVFGGGTKLTVLGQPKAAPSVTLFPPSSEELQANKATLVCLISDFYPGAVTVAWKADSSPVKAGVETTTPSKQSNNKYAASSYLSLTPEQWKSHRSYSCQVTHEGSTVEKTVAPT
notes: also called 15H3L3 antibody with wild-typed Fc region
Turning to B2, the binding result in assay [2], in assay [4], in [5] and in [6] was “binds” in each case. Also, the “EC50 (read off the curve)” value in assay [3] is around 0.1 µg/mL.

B3: 15H3L3-LLP (15H3L3 with IgG1 constant region L234A/L235A/P329G) (antibody)
heavy: EVQLLESGGGLVQPGGSLRLSCAASGFTFNTYAMNWVRQAPGKGLEWVARIRSKYNNYATYYAISVKDRFTISRDDSKNTLYLQMNSLRAEDTAMYYCVRHGNFGNSYLSYWAYWGQGTLVTVSSASTKGPSVFPLAPSSKSTSGGTAALGCLVKDYFPEPVTVSWNSGALTSGVHTFPAVLQSSGLYSLSSVVTVPSSSLGTQTYICNVNHKPSNTKVDKKVEPKSCDKTHTCPPCPAPEAAGGPSVFLFPPKPKDTLMISRTPEVTCVVVDVSHEDPEVKFNWYVDGVEVHNAKTKPREEQYNSTYRVVSVLTVLHQDWLNGKEYKCKVSNKALGAPIEKTISKAKGQPREPQVYTLPPSREEMTKNQVSLTCLVKGFYPSDIAVEWESNGQPENNYKTTPPVLDSDGSFFLYSKLTVDKSRWQQGNVFSCSVMHEALHNHYTQKSLSLSPGK
light: B2 light
Turning to B3, the binding result in [2] and in [4] was “no binding (tested: 40 µg/mL)” each time. Besides, the “EC50 (read off the curve)” value in [3] is around 0.09 µg/mL.

B4: 15H3L3-LLNP (15H3L3 with IgG1 constant region L234A/L235A/N297A/P329G) (antibody)
heavy: B3 heavy with N305A
light: B2 light
notes: also called 15H3L3-LLPN
With B4, the binding result in assay [2], in assay [4], in [5] and in assay [6] was “no binding (tested: 40 µg/mL)” throughout. The “EC50 (read off the curve)” value in assay [3] is around 0.09 µg/mL.

B5: 15H3L3-LL (15H3L3 with IgG1 constant region L234A/L235A) (antibody)
heavy: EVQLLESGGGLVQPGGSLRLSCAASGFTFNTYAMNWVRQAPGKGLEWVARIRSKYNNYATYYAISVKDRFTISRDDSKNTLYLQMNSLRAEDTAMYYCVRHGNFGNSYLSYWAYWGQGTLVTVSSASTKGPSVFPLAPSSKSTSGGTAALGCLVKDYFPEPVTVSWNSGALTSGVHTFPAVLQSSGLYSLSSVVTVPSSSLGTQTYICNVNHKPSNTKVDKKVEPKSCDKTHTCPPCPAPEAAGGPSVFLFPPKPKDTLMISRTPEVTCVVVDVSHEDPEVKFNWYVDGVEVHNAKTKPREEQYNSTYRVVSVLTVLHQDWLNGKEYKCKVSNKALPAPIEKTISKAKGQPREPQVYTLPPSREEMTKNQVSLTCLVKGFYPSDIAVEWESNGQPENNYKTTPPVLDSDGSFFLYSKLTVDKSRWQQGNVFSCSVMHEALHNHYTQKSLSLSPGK
light: B2 light
On to B5, for which the binding result in assay [2] is “binds”; in [4] it was “no binding (tested: 40 µg/mL)”; in assay [5] it was “binds”; in [6], “binds”. Moreover, the “EC50 (read off the curve)” value in [3] was around 0.09 µg/mL.

B6: 15H3L3-LLN (15H3L3 with IgG1 constant region L234A/L235A/N297A) (antibody)
heavy: B3 heavy with N305A, G337P
light: B2 light
With B6, the binding result in assay [2], in [4] and in assay [5] was “no binding (tested: 40 µg/mL)” each time. The “EC50 (read off the curve)” value in [3] was around 0.09 µg/mL.

B7: humanized anti-CD3 antibody 15H2L3 (human IgG1) (antibody, V domains shown)
VH: EVQLLESGGGLVQPGGSLRLSCAASGFTFNTYAMNWVRQAPGKGLEWVARIRSKYNNYATYYAISVKDRFTISRDNSKNTLYLQMNSLRAEDTAVYYCVKHGNFGNSYLSYWAYWGQGTLVTVSS
VL: QAVVTQEPSLTVSPGGTVTLTCQSSTGAVTTNNYANWVQQKPGHAFRGLIGGTKQRAPGVPARFSGSLLGGKAALTLSGVQPEDEAEYYCVLWYSNLWVFGGGTKLTVLG
Consider B7, for which the entries for the “EC50 (read off the curve)” value in assay [7] and in assay [8] were around 90 µg/mL and around 80 µg/mL, respectively.

B8: humanized anti-CD3 antibody 26H3L3 (human IgG1) (antibody, V domains shown)
VH: B7 VH with I64D, N76D, V95M, K100R, L109I, Y111W
VL: B7 VL with Q23K, N32S, K54N, Q55L, R56H, V91A
Regarding B8, the figures for the “EC50 (read off the curve)” value in assay [9] and in [10] were around 0.1 µg/mL and around 0.08 µg/mL, respectively.
